According to US5972599, “High affinity nucleic acid ligands of cytokines” (NeXstar Pharmaceuticals, Inc.):

Assays:
[1] = molecular target: IL-4 (Homo sapiens, UniProt P05112 P05112:25-153); assay: filter; group 1 stated to bind IL-4; conditions: tags: R&D Systems
[2] = molecular target: TNF-alpha (Homo sapiens, UniProt P01375 P01375:77-233); assay: filter; class I; conditions: tags: Genzyme or R&D Systems; chain copies: 3 inferred
[3] = molecular target: IL-10 (Homo sapiens, UniProt P22301 P22301:19-178); assay: filter; group statement, at 250 nM IL-10; conditions: tags: Bachem or R&D Systems; chain copies: 2
Chain of IL-10 (P22301 19-178, one chain of several): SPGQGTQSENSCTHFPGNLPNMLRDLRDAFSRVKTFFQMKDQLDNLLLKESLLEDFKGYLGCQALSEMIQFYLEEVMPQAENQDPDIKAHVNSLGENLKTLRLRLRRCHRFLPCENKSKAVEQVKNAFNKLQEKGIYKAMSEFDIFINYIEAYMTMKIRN

Chain of IL-4 (P05112 25-153, one chain of several): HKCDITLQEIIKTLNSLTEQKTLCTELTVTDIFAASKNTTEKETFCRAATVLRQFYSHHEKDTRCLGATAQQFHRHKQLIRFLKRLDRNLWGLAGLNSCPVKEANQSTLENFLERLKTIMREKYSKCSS
Chain of TNF-alpha (P01375 77-233, one chain of several): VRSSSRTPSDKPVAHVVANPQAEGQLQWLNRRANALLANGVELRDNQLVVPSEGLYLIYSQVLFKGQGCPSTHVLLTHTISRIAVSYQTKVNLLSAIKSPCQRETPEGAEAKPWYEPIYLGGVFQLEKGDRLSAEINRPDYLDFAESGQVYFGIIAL

Binder	binding result [1]	binding result [3]	also measured
IL-4 2'NH2-12 (ssRNA, 2'-NH2 C and U) RNA: GGGAGACAAGAAUAAACGCUCAAGGACUGGUGAGCCACGUAUACGGUCUUAGGGGCUUGGGCGUUCGACAGGAGGCUCACAACAGGC	binds		
IL-4 2'NH2-B31 (ssRNA, 2'-NH2 C and U) RNA: GGGAGACAAGAAUAAACGCUCAAGAGCUGGUGAGCCACGUAUACGGUCUUAGGGGCUUGGGCGUUCGACAGGAGGCUCACAACAGGC	binds		
IL-4 2'NH2-31 (ssRNA, 2'-NH2 C and U) RNA: GGGAGACAAGAAUAAACGCUCAAGUGCUGGUGAGCCACGCAUACGGUCUUAGGGGCUUGAGCGUUCGACAGGAGGCUCACAACAGGC	binds		
IL-4 2'NH2-22 (ssRNA, 2'-NH2 C and U) RNA: GGGAGACAAGAAUAAACGCUCAACAGAUGGUAUCUAGUGGAGAGCCACAUCAACGGCGCAGAUUCGACAGGAGGCUCACAACAGGC	binds		
TNF 19C (ssRNA) RNA: GGGAGCUCAGAAUAAACGCUCAAUGUCGAUCGUGUCAAGGUCCGUCCUACUUCUUCGACAUGAGGCCCGGAUCCGGC			Kd [2]: 83 nM
IL-4 2'NH2-B14 (ssRNA, 2'-NH2 C and U) RNA: GGGAGACAAGAAUAAACGCUCAAUAAAUGGAGAGCCACACUAACGGCGUAUGAAAACACUCAUUCGACAGGAGGCUCACAACAGGC	binds		
IL-10 ligand 56 (ssRNA, 2'-F C and U) RNA: GGGAGACAAGAAUAAACGCUCAAUCUCUAAGAGCCUGGAUGUCGAGGGGCCAUUUCGCACGCUUCGACAGGAGGCUCACAACAGGC		binds	
IL-10 ligand 2 (ssRNA, 2'-F C and U) RNA: GGGAGACAAGAAUAAACGCUCAAAUCUCUACUGAGCCUGGAUUCGCCAGAAGUUUUAUCACAGUUUCGACAGGAGGCUCACAACAGGC		binds	
IL-10 ligand 10 (ssRNA, 2'-F C and U) RNA: GGGAGACAAGAAUAAACGCUCAACUGAGAUCUCUAAGAGCCUGGACUCAGCUCCGACUGACCUUCGACAGGAGGCUCACAACAGGC		binds	
TNF 9C (ssRNA) RNA: GGGAGCUCAGAAUAAACGCUCAAAUGGUGGAGGCCAUCUCAAACCCACGACACUUCGACAUGAGGCCCGGAUCCGGC			Kd [2]: 120 nM
TNF 15C (ssRNA) RNA: GGGAGCUCAGAAUAAACGCUCAACUAGUUCAACCGUCCCUUCUAACAACCGUCUUCGACAUGAGGCCCGGAUCCGGC			Kd [2]: 124 nM
IL-10 ligand 68 (ssRNA, 2'-F C and U) RNA: GGGAGACAAGAAUAAACGCUCAAACAUCGUAUAAUCUCUCUAAGAGCCUGGAAUACGAUGAAUUCGACAGGAGGCUCACAACAGGC		binds	
IL-4 2'NH2-B8 (ssRNA, 2'-NH2 C and U) RNA: GGGAGACAAGAAUAAACGCUCAAUGUGGGGAGCCACAGUUAACGGCUUCAACUGAUUAGAAUUCGACAGGAGGCUCACAACAGGC	binds		
IL-10 ligand 59 (ssRNA, 2'-F C and U) RNA: GGGAGACAAGAAUAAACGCUCAACGUAAAAGUUAUCGAAUCUCUGUGAGCCUGGAUCGAUUACUUCGACAGGAGGCUCACAACAGGC		binds	
IL-10 ligand 55 (ssRNA, 2'-F C and U) RNA: GGGAGACAAGAAUAAACGCUCAAACAUCGUAUAAUCUCUAAGAGCCUGGAUAUACGAUGAAUUCGACAGGAGGCUCACAACAGGC		binds	
IL-4 2'F/NH2-19 (ssRNA, 2'-F C, 2'-NH2 U) RNA: GGGAGACAAGAAUAAACGCUCAAGUCUUCCAUGGGGAGCCACAUUAACGGCGCAAUACUGAACUUCGACAGGAGGCUCACAACAGGC	binds		
TNF 3A (ssRNA) RNA: GGGAGCUCAGAAUAAACGCUCAAGAUCGACGCAUCGAGUCGCCUCAUCGCUCCUUCGACAUGAGGCCCGGAUCCGGC			Kd [2]: 135 nM
IL-4 2'NH2-B16 (ssRNA, 2'-NH2 C and U) RNA: GGGAGACAAGAAUAAACGCUCAAUCACAAGCACCCUUGGGGAGCCACAUUAACGGCCUAGGCUUCGACAGGAGGCUCACAACAGGC	binds		
IL-10 ligand 64 (ssRNA, 2'-F C and U) RNA: GGGAGACAAGAAUAAACGCUCAAACAUCGUAUAACUCUAAGCGCCUGGAUAUACGAUGAAUUCGACAGGAGGCUCACAACAGGC		binds	
IL-10 ligand 64a (ssRNA, 2'-F C and U) RNA: GGGAGACAAGAAUAAACGCUCAAACAUCGUAUAACUCUAAGAGCCUGGAUAUACGAUGAAUUCGACAGGAGGCUCACAACAGGC		binds	

Binder	binding result [1]	binding result [3]	also measured
IL-10 ligand 64b (ssRNA, 2'-F C and U) RNA: GGGAGACAAGAAUAAACGCUCAAACAUCGUAUAACUCUAAGUGCCUGGAUAUACGAUGAAUUCGACAGGAGGCUCACAACAGGC		binds	
IL-4 2'NH2-B29 (ssRNA, 2'-NH2 C and U) RNA: GGGAGACAAGAAUAAACGCUCAAUGACUGAACGAUGGUAUUGGAGAGCCACAUCAACGGCAAUUUCGACAGGAGGCUCACAACAGGC	binds		
IL-4 2'NH2-17 (ssRNA, 2'-NH2 C and U) RNA: GGGAGACAAGAAUAAACGCUCAAGUAUUGGGGAGCCACAUUACAACGGCACAGGCAACCAGGGUUCGACAGGAGGCUCACAACAGGC	binds		
IL-10 ligand 6 (ssRNA, 2'-F C and U) RNA: GGGAGACAAGAAUAAACGCUCAAAUCCCAAUCUCUAAGAGCCUGGAUAAGAAUGCGCAUUGGGCUUCGACAGGAGGCUCACAACAGGC		binds	
IL-10 ligand 57 (ssRNA, 2'-F C and U) RNA: GGGAGACAAGAAUAAACGCUCAAAUCCCAAUCUCUAAGAGCCUGGAUGAGAAUGCGCAUUGGGCUUCGACAGGAGGCUCACAACAGGC		binds	
IL-10 ligand 34 (ssRNA, 2'-F C and U) RNA: GGGAGACAAGAAUAAACGCUCAACUGAGAUCUCUAAGAGCCUGGACUCAGCUCCGAUUGAUCCUUCGACAGGAGGCUCACAACAGGC		binds	
IL-10 ligand 41 (ssRNA, 2'-F C and U) RNA: GGGAGACAAGAAUAAACGCUCAACUGAGAUCUCUAAGAGCCUGGACUCAGCUCCGAUUGAACCUUCGACAGGAGGCUCACAACAGGC		binds	
IL-4 2'F/NH2-25 (ssRNA, 2'-F C, 2'-NH2 U) RNA: GGGAGACAAGAAUAAACGCUCAAAGAGCCGUUUUGGGGACCCACAGUAACGGGUUUAUGGUAUUCGACAGGAGGCUCACAACAGGC	binds		
IL-10 ligand 54 (ssRNA, 2'-F C and U) RNA: GGGAGACAAGAAUAAACGCUCAAAUCCCAAUCUCUAAGAGCCUGGAUGACAAUCGCAUUGGGCUUCGACAGGAGGCUCACAACAGGC		binds	
IL-4 2'NH2-B24 (ssRNA, 2'-NH2 C and U) RNA: GGGAGACAAGAAUAAACGCUCAAAGAUUUAAAGUAUUUGGGGAGCCACAUCAACGGCAUUGUGUUCGACAGGAGGCUCACAACAGGC	binds		
IL-4 2'NH2-B5 (ssRNA, 2'-NH2 C and U) RNA: GGGAGACAAGAAUAAACGCUCAACGAUAGUAUACACAUGAUGAUGGGGAGCCACGUGUACGGCUUCGACAGGAGGCUCACAACAGGC	binds		
TNF 11C (ssRNA) RNA: GGGAGCUCAGAAUAAACGCUCAAUGAGGCGCGCCACAGGAUGGCCCUCAACCCUUCGACAUGAGGCCCGGAUCCGGC			Kd [2]: 140 nM
IL-4 2'F/NH2-41 (ssRNA, 2'-F C, 2'-NH2 U) RNA: GGGAGACAAGAAUAAACGCUCAAAGUAACGUGGGGAGCCACACGUAAUACGGCACUAAUUCGACAGGAGGCUCACAACAGGC	binds		
IL-10 ligand 3 (ssRNA, 2'-F C and U) RNA: GGGAGACAAGAAUAAACGCUCAACUGAGAUCUCUAAGAGCCUGGACUCAGCUACGAUUGAGCGUUUAUUCUUGUUCGACAGGAGGCUCACAACAGGC		binds	
IL-4 2'F/NH2-8 (ssRNA, 2'-F C, 2'-NH2 U) RNA: GGGAGACAAGAAUAAACGCUCAAGUCGGAGCGAUGGAGAGCCACGAUAUACGGUCUGUGCGCUUCGACAGGAGGCUCACAACAGGC	binds		
IL-4 2'NH2-B26 (ssRNA, 2'-NH2 C and U) RNA: GGGAGACAAGAAUAAACGCUCAAAUGGAGAGCCACAUUAACGGCAGCAUAUCACAGUAGGAAUUCGACAGGAGGCUCACAACAGGC	binds		
IL-10 ligand 15 (ssRNA, 2'-F C and U) RNA: GGGAGACAAGAAUAAACGCUCAAUCUCUAUGAGCCUGGAUCGACGAACUCUCUACGGGCUGUGUUCGACAGGAGGCUCACAACAGGC		binds	
IL-4 2'NH2-B18 (ssRNA, 2'-NH2 C and U) RNA: GGGAGACAAGAAUAAACGCUCAACGAUGGAGCGCCACAUCGCUAUAACGGCAUUUAACAAAAUUUCGACAGGAGGCUCACAACAGGC	binds		
IL-4 2'F/NH2-13 (ssRNA, 2'-F C, 2'-NH2 U) RNA: GGGAGACAAGAAUAAACGCUCAACUCGGGAGCCAGAGUAACAACGGCACUAUAUAAUUUUACUUCGACAGGAGGCUCACAACAGGC	binds		
IL-4 2'NH2-27 (ssRNA, 2'-NH2 C and U) RNA: GGGAGACAAGAAUAAACGCUCAACCUUGUGGGGAGCCACGUAUACGGCCAUAGCAUACCGCAAUUCGACAGGAGGCUCACAACAGGC	binds		
